Results published in US20210246204A1 (Alector, published 2021).

How the values were obtained:
[1] = target: human Siglec-7 on primary human monocyte-derived dendritic cells (human, UniProt Q9Y286 19-467); assay: cell-based or functional assay
[2] = target: T1, histidine-tagged human Siglec-7 (NovoProtein) (human, UniProt Q9Y286 19-353); assay: BLI, antibody captured
T1 construct: Bought protein; also called recombinant human Siglec-7; recombinant Siglec-7; not shown: histidine tag
Procedure: In this assay, the humanized antibodies were compared directly to S7AB. Briefly, the antibodies were captured on anti-human or anti-mouse IgG Fc Biosensors (Pall ForteBio). Varying concentrations (0-100 nM) of histidine-tagged human Siglec-7 (NovoProtein) were then bound to the captured anti-Siglec-7 surface (200 s association time, 900 s dissociation time). Multi-concentration kinetic analysis was performed using a 1:1 interaction model to extract association and dissociation rate constants (kₐ and kd, respectively) for each antibody. Apparent affinity constants (KD) were calculated from the ratio kd/kₐ.
The affinities of S7AB-H8 and variants S7AB-H8.1 through S7AB-H8.45 for human Siglec-7 were measured by BioLayer Interferometry according to the method described in Example 1 above.

human Siglec-7 on primary human monocyte-derived dendritic cells, sequence (Q9Y286 19-467): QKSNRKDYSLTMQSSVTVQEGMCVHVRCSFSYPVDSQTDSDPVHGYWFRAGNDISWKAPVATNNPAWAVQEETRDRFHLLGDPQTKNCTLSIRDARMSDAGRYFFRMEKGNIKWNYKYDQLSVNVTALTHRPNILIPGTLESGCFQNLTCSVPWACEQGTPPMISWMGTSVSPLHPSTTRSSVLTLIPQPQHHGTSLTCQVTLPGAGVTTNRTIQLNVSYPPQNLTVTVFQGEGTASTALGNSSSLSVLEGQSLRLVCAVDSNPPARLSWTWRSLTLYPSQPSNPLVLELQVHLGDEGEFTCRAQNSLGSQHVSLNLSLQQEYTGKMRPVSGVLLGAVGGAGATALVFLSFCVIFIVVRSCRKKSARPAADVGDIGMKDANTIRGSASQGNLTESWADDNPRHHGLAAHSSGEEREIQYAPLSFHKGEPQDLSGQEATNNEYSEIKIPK
T1 sequence (Q9Y286 19-353 limits assumed): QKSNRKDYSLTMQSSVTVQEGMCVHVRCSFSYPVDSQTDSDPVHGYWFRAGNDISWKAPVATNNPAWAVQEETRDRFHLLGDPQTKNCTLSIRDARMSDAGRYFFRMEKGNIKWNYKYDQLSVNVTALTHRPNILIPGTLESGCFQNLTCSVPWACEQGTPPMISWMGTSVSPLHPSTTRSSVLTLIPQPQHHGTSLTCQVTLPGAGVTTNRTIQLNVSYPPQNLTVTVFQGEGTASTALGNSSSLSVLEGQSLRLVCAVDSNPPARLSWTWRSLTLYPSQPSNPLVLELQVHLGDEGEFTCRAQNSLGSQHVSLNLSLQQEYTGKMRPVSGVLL

Binder | Fold increase in potency compared to AB-H8 [1] [fold] | Fold increase in potency compared to Chimeric Ab [1] [fold] | Maximal downregulation (% Siglec-7 remaining) [1] [%] | Receptor downregulation, (EC50) (pM) [1] [pM] | Kd [2] [nM] | fold improvement over S7AB-H8 [2] [fold] | koff [2] [s⁻¹] | kon [2] [M⁻¹ s⁻¹]
S7AB-H8.5 (antibody, V domains shown) VH: QVQLVQSGAEVKKPGASVKVSCKASGYAFTEAWMNWVRQAPGQGLEWIGRIFPGYGHTNYAQKFQGRATLTEDTSTSTAYMELSSLRSEDTAVYYCARDYSDYYFDYWGQGTLVTVSS VL: DIQMTQSPSSLSASVGDRVTITCRGSQDINTYLNWYQQKPGKAPKLLIYYTSRLHSGVPSRFSGSGSGTDYTLTISSLQPEDFATYYCQQGNLLPWTFGQGTKLEIK | 3.9 | 11.8 | 9.5 | 87 | 0.351 | 3 | 4.08e-05 | 116000
S7AB-H8.16 (antibody, V domains shown) VH: QVQLVQSGAEVKKPGASVKVSCKASGYAFTETWMNWVRQAPGQGLEWIGRIFPGLGHTNYAQKFQGRATLTEDTSTSTAYMELSSLRSEDTAVYYCARDYSDYYFDYWGQGTLVTVSS VL: DIQMTQSPSSLSASVGDRVTITCRGSQDTNTYLNWYQQKPGKAPKLLIYYTSRLHSGVPSRFSGSGSGTDYTLTISSLQPEDFATYYCQQGNTLPWTFGQGTKLEIK | 1 | 2.9 | 10.1 | 348 | 2.53 | 0.4 | 0.000165 | 65400
S7AB-H8.10 (antibody, V domains shown) VH: QVQLVQSGAEVKKPGASVKVSCKASGYAFTEAWMNWVRQAPGQGLEWIGRIFPGYGHTNYAQKFQGRATLTEDTSTSTAYMELSSLRSEDTAVYYCARDYSDYYFDYWGQGTLVTVSS VL: DIQMTQSPSSLSASVGDRVTITCRGSQDINTYLNWYQQKPGKAPKLLIYYTSRLHSGVPSRFSGSGSGTDYTLTISSLQPEDFATYYCQQGNTKPWTFGQGTKLEIK | 1.7 | 5.2 | 7 | 197 | 1.62 | 0.6 | 8.14e-05 | 50400
S7AB-H8.11 (antibody, V domains shown) VH: QVQLVQSGAEVKKPGASVKVSCKASGYAFTETWMNWVRQAPGQGLEWIGRIFPGLGHTNYAQKFQGRATLTEDTSTSTAYMELSSLRSEDTAVYYCARDYSDYYFDYWGQGTLVTVSS VL: DIQMTQSPSSLSASVGDRVTITCRGSQDINTYLNWYQQKPGKAPKLLIYYTSRLHSGVPSRFSGSGSGTDYTLTISSLQPEDFATYYCQGGNTLPWTFGQGTKLEIK | 0.05 | 0.1 | 74.7 | 7140 | 124 | 0.01 | 0.000388 | 3140
S7AB-H8.14 (antibody, V domains shown) VH: QVQLVQSGAEVKKPGASVKVSCKASGYAFTAAWMNWVRQAPGQGLEWIGRIFPGLGHTNYAQKFQGRATLTEDTSTSTAYMELSSLRSEDTAVYYCARDYSDYYFDYWGQGTLVTVSS VL: DIQMTQSPSSLSASVGDRVTITCRGSQDINTYLNWYQQKPGKAPKLLIYYTSRLHSGVPSRFSGSGSGTDYTLTISSLQPEDFATYYCQGGNTLPWTFGQGTKLEIK | 0.2 | 0.5 | 45.7 | 1950 | 54.1 | 0.02 | 0.000176 | 3260
S7AB-H8.7 (antibody, V domains shown) VH: QVQLVQSGAEVKKPGASVKVSCKASGYAFTMAWMNWVRQAPGQGLEWIGRIFPGYGHTNYAQKFQGRATLTEDTSTSTAYMELSSLRSEDTAVYYCARDYSDYYFDYWGQGTLVTVSS VL: DIQMTQSPSSLSASVGDRVTITCRGSQDINTYLNWYQQKPGKAPKLLIYYTSRLHSGVPSRFSGSGSGTDYTLTISSLQPEDFATYYCQQGNTKPWTFGQGTKLEIK | 4 | 12.1 | 2.1 | 84.7 | 0.62 | 1.7 | 4.19e-05 | 67600
S7AB-H8.15 (antibody, V domains shown) VH: QVQLVQSGAEVKKPGASVKVSCKASGYAFTEAWMNWVRQAPGQGLEWIGRIFPGYGHTNYAQKFQGRATLTEDTSTSTAYMELSSLRSEDTAVYYCARDYSDYYFDYWGQGTLVTVSS VL: DIQMTQSPSSLSASVGDRVTITCRGSQDINTYLNWYQQKPGKAPKLLIYYTSRLHSGVPSRFSGSGSGTDYTLTISSLQPEDFATYYCQGGNTLPWTFGQGTKLEIK | – | – | 85 | > 3000 | 2.6 | 0.4 | 0.000607 | 233000
S7AB-H8.8 (antibody, V domains shown) VH: QVQLVQSGAEVKKPGASVKVSCKASGYAFTGYWMNWVRQAPGQGLEWIGRIFPGLGHTNYAQKFQGRATLTEDTSTSTAYMELSSLRSEDTAVYYCARDYSDYYFDYWGQGTLVTVSS VL: DIQMTQSPSSLSASVGDRVTITCRGSQDINTYLNWYQQKPGKAPKLLIYYTSRLHSGVPSRFSGSGSGTDYTLTISSLQPEDFATYYCQQGNTKPWTFGQGTKLEIK | 3.8 | 11.4 | 19.2 | 89.8 | 0.371 | 2.8 | 6.33e-05 | 171000
S7AB-H8.12 (antibody, V domains shown) VH: QVQLVQSGAEVKKPGASVKVSCKASGYAFTMAWMNWVRQAPGQGLEWIGRIFPGYGHTNYAQKFQGRATLTEDTSTSTAYMELSSLRSEDTAVYYCARDYSDYYFDYWGQGTLVTVSS VL: DIQMTQSPSSLSASVGDRVTITCRGSQDINTYLNWYQQKPGKAPKLLIYYTSRLHSGVPSRFSGSGSGTDYTLTISSLQPEDFATYYCQGGNTLPWTFGQGTKLEIK | 0.01 | 0.04 | 61.3 | 25400 | 46.3 | 0.02 | 0.000155 | 3350
S7AB-H8.6 (antibody, V domains shown) VH: QVQLVQSGAEVKKPGASVKVSCKASGYAFTETWMNWVRQAPGQGLEWIGRIFPGLGHTNYAQKFQGRATLTEDTSTSTAYMELSSLRSEDTAVYYCARDYSDYYFDYWGQGTLVTVSS VL: DIQMTQSPSSLSASVGDRVTITCRGSQDINTYLNWYQQKPGKAPKLLIYYTSRLHSGVPSRFSGSGSGTDYTLTISSLQPEDFATYYCQQGNTKPWTFGQGTKLEIK | 2.2 | 6.6 | 7.2 | 154 | 2.24 | 0.5 | 5.71e-05 | 25500
S7AB-H8.9 (antibody, V domains shown) VH: QVQLVQSGAEVKKPGASVKVSCKASGYAFTAAWMNWVRQAPGQGLEWIGRIFPGLGHTNYAQKFQGRATLTEDTSTSTAYMELSSLRSEDTAVYYCARDYSDYYFDYWGQGTLVTVSS VL: DIQMTQSPSSLSASVGDRVTITCRGSQDINTYLNWYQQKPGKAPKLLIYYTSRLHSGVPSRFSGSGSGTDYTLTISSLQPEDFATYYCQQGNTKPWTFGQGTKLEIK | 2.9 | 8.8 | 3.1 | 116 | 0.527 | 2 | 4.82e-05 | 91400
S7AB-H8.13 (antibody, V domains shown) VH: QVQLVQSGAEVKKPGASVKVSCKASGYAFTGYWMNWVRQAPGQGLEWIGRIFPGLGHTNYAQKFQGRATLTEDTSTSTAYMELSSLRSEDTAVYYCARDYSDYYFDYWGQGTLVTVSS VL: DIQMTQSPSSLSASVGDRVTITCRGSQDINTYLNWYQQKPGKAPKLLIYYTSRLHSGVPSRFSGSGSGTDYTLTISSLQPEDFATYYCQGGNTLPWTFGQGTKLEIK | 0.1 | 0.5 | 43.3 | 2270 | 35.7 | 0.03 | 0.000303 | 8500
